Measured values from patent publication US9951356B2, “Processes to prepare elongated 2-ketoacids and C6-C10 compounds therefrom via genetic modifications to microbial metabolic pathways” (Dow Global Technologies LLC, priority 2013, dated 2018).

Experiments:
Type in all cases: biochemical
[1] = HTP LeuB kinetic assay, oxidative decarboxylation of 3-HM; conditions: for Km / kcat: substrate 3-HM, mean ± S.D.
Method: (§1) The evaluation of the LeuB variants is performed in two steps using the high-throughput enzyme assay described below. Initially, all of the variants are screened for activity against a single high concentration of 3-IPM, 3-BM and 3-HM. Following the initial evaluation, detailed kinetic analysis is performed on a select number of variants to determine the maximal rate (kcat), Michaelis-Menten constant (KM), and the catalytic efficiency of the variant enzymes (kcat/KM).
(§2) A suitable spectrophotometric LeuB enzyme assay is adapted into a high-throughput format in 96-well plates for the kinetic evaluation of LeuB and its variants (shown in Table 1) against 3-isopropylmalate (3-IPM), 3-butylmalate (3-BM), and 3-hexylmalate (3-HM). See, for example, Hsu, Y.; Kohlhaw, G. B. “Leucine biosynthesis in Saccharomyces cerevisiae. Purification and characterization of beta-isopropylmalate dehydrogenase,” J. Biol. Chem., 1980, 255:7255-7260. Steady state kinetic parameters (kcat, KM and kcat/KM) for the oxidative decarboxylation of the three substrates by the variants are determined in these experiments.
(§3) The HTP kinetic assay involves incubating eight varied concentrations, of 3-IPM (from 0 to 1.2 mM) or 3-BM (from 0 to 2 mM) or 3-HM (from 0 to 2 mM), with 2 mM NAD^+ in LeuB assay buffer (50 mM HEPES, pH 8.0, containing 30 mM KCl and 5 mM MgCl2) at 25° C. The reaction is started by adding from 0.008 μg to 0.5 μg of LeuB variant which has been pre-diluted in assay buffer containing 1 mM DTT and 1 mg/mL BSA. The plate containing the 200 μl of reaction mixture is centrifuged at 2500×g for 15 sec and the absorbance change is followed spectrophotometrically at 340 nm on a BioTek™ plate reader maintained at 25° C. Initial velocity of the enzyme reaction is calculated from the rate of NADH production at 340 nm and using the extinction coefficient of NADH (6.22 mM^−1cm^−1). The kinetic parameters (kcat, KM and kcat/KM) of oxidative decarboxylation of 3-alkylmalate are determined by fitting the data to the Michaelis-Menten equation using nonlinear regression performed using the GraphPad Prism™ software. Table 3 lists the kinetic parameters of the wild type and engineered variants against the three substrates. The amount of enzyme in the reaction mixture is determined using the 660 nm total protein assay kit acquired from Pierce Biotechnology Inc.™, using BSA as the standard.

[2] = HTP LeuB kinetic assay, oxidative decarboxylation of 3-BM; conditions: for Km / kcat: substrate 3-BM, mean ± S.D.
Method: as §1, §2, §3

[3] = HTP LeuB kinetic assay, oxidative decarboxylation of 3-IPM; conditions: for decrease in efficiency of capturing 3-IPM compared with the wild type enzyme: less efficient than wild type LeuB; for Km / kcat: substrate 3-IPM, mean ± S.D.
Method: as §1, §2, §3

[4] = HTP screening assay of LeuB variants, 3-HM; conditions: for Specific activity, 3-HM: 1 mM 3-HM, 2 mM NAD+, pH 8.0, 25° C., mean of duplicates; for activity against 3-HM compared with the wild type enzyme: screening at single high concentration
Method: as §1, §2
(§4) The HTP screening assay involves incubating 750 micromoles (μM) of 3-IPM, 1 mM 3-BM or 1 mM 3-HM, with 2 mM nicotinamide adenine dinucleotide (NAD^+) in LeuB assay buffer (50 mM 4-(2-hydroxyethyl) piperazine-1-ethanesulfonic acid (HEPES), pH 8.0, containing 30 mM potassium chloride (KCl) and 5 mM magnesium chloride (MgCl2)) at 25° C. The reaction is started by the addition at 25° C. of working enzyme stock containing from 0.3 microgram (μg) to 1.1 μg of LeuB variant diluted in assay buffer containing 1 mM DTT and 1 milligram per milliliter (mg/mL) bovine serum albumin (BSA). The plate containing the 200 μL of reaction mixture is centrifuged at 2500×g for 15 seconds (sec) and the absorbance change of the reaction mixture is followed spectrophotometrically at 340 nm on a BioTek™ plate reader, pre-equilibrated at 25° C. Initial velocity of the enzyme reaction is calculated from the rate of NADH production at 340 nm and using the extinction coefficient of NADH (6.22 per millimolar per centimeter (mM^−1cm^−1)). The activity of all the variants is normalized with the amount of enzyme present in the reaction mixture and expressed as nanomoles per minute per microgram (nmol·min^−1·μg^−1) (Table 2). Protein concentrations for normalizing the activities are determined using the 660 nm total protein assay kit acquired from Pierce Biotechnology Inc.™, available from Thermo Fisher Scientific, Inc., and using BSA as the standard.

[5] = HTP screening assay of LeuB variants, 3-BM; conditions: 1 mM 3-BM, 2 mM NAD+, pH 8.0, 25° C.; mean of duplicates
Method: as §1, §2, §4

[6] = HTP screening assay of LeuB variants, 3-IPM; conditions: 750 μM 3-IPM, 2 mM NAD+, pH 8.0, 25° C.; mean of duplicates
Method: as §1, §2, §4

| Molecule | Km [1] | kcat [1] | efficiency of capturing 3-BM compared with the wild type enzyme ([2]; in words) | Km [2] | kcat [2] | decrease in efficiency of capturing 3-IPM compared with the wild type enzyme [3] | Km [3] | kcat [3] | Specific activity, 3-HM [4] | activity against 3-HM compared with the wild type enzyme [4] | Specific activity, 3-BM [5] | Specific activity, 3-IPM [6] | catalytic efficiency for 3-IPM relative to that for 3-HM ([3]; higher for 3-IPM than for 3-HM) | increase in efficiency of capturing 3-HM compared with the wild type enzyme ([1]; more efficient than wild type LeuB) |
| --- | --- | --- | --- | --- | --- | --- | --- | --- | --- | --- | --- | --- | --- | --- |
| L96A: E. coli isopropylmalate dehydrogenase (LeuB) with Leu-96 replaced with alanine (protein, UniProt P30125 2-363, looked up, variant L96A) 3-isopropylmalate …: SKNYHIAVLPGDGIGPEVMTQALKVLDAVRNRFAMRITTSHYDVGGAAIDNHGQPLPPATVEGCEQADAVLFGSVGGPKWEHLPPDQQPERGALAPLRKHFKLFSNLRPAKLYQGLEAFCPLRADIAANGFDILCVRELTGGIYFGQPKGREGSGQYEKAFDTEVYHRFEIERIARIAFESARKRRHKVTSIDKANVLQSSILWREIVNEIATEYPDVELAHMYIDNATMQLIKDPSQFDVLLCSNLFGDILSDECAMITGSMGMLPSASLNEQGFGLYEPAGGSAPDIAGKNIANPIAQILSLALLLRYSLDADDAACAIERAINRALEEGIRTGDLARGAAAVSTDEMGDIIARYVAEGV | 240 ± 40 µM | 0.683 ± 0.0083 s⁻¹ | modestly poor | 130 ± 20 µM | 7 ± 0.367 s⁻¹ | approximately 4 fold | 16 ± 10 µM | 11.1 ± 2.57 s⁻¹ | 0.77 nmol/min/µg | higher activity than the wild type enzyme | 9.48 nmol/min/µg | 15.4 nmol/min/µg | – | – |
| Wild type LeuB: native E. coli LeuB (isopropylmalate dehydrogenase), SEQ ID 2, histidine-tagged (protein, UniProt P30125 2-363, looked up) 3-isopropylmalate …: SKNYHIAVLPGDGIGPEVMTQALKVLDAVRNRFAMRITTSHYDVGGAAIDNHGQPLPPATVEGCEQADAVLFGSVGGPKWEHLPPDQQPERGALLPLRKHFKLFSNLRPAKLYQGLEAFCPLRADIAANGFDILCVRELTGGIYFGQPKGREGSGQYEKAFDTEVYHRFEIERIARIAFESARKRRHKVTSIDKANVLQSSILWREIVNEIATEYPDVELAHMYIDNATMQLIKDPSQFDVLLCSNLFGDILSDECAMITGSMGMLPSASLNEQGFGLYEPAGGSAPDIAGKNIANPIAQILSLALLLRYSLDADDAACAIERAINRALEEGIRTGDLARGAAAVSTDEMGDIIARYVAEGV | 160 ± 20 µM | 0.433 ± 0.033 s⁻¹ | – | 38 ± 13 µM | 3.65 ± 0.333 s⁻¹ | – | 9 ± 3 µM | 23.92 ± 2.02 s⁻¹ | 0.68 nmol/min/µg | – | 4.3 nmol/min/µg | 18.3 nmol/min/µg | 1,000 fold | – |
| L96G: E. coli LeuB variant with Leu-96 replaced with glycine (protein, UniProt P30125 2-363, looked up, variant L96G) 3-isopropylmalate …: SKNYHIAVLPGDGIGPEVMTQALKVLDAVRNRFAMRITTSHYDVGGAAIDNHGQPLPPATVEGCEQADAVLFGSVGGPKWEHLPPDQQPERGALGPLRKHFKLFSNLRPAKLYQGLEAFCPLRADIAANGFDILCVRELTGGIYFGQPKGREGSGQYEKAFDTEVYHRFEIERIARIAFESARKRRHKVTSIDKANVLQSSILWREIVNEIATEYPDVELAHMYIDNATMQLIKDPSQFDVLLCSNLFGDILSDECAMITGSMGMLPSASLNEQGFGLYEPAGGSAPDIAGKNIANPIAQILSLALLLRYSLDADDAACAIERAINRALEEGIRTGDLARGAAAVSTDEMGDIIARYVAEGV | 30 ± 3 µM | 7.58 ± 0.167 s⁻¹ | – | 1900 ± 200 µM | 3.12 ± 0.1 s⁻¹ | 100 fold | – | – | 9.5 nmol/min/µg | higher activity than the wild type enzyme | 1.5 nmol/min/µg | 2.90 nmol/min/µg | – | 80 fold |
